Measurements as given in patent publication US11279770 (MERUS N V, dated 2022).

Columns and labels:
ErbB2-Fc (RND systems) = target: T1, ErbB2-Fc (RND systems) (UniProt P04626 23-652); assay: SPR (BIACORE T100), ErbB2-Fc on CM5 chip, bispecific as analyte, 1:1 monovalent model
T1 construct: Bought protein; also called Fc-HER2; Her2-Fc; not shown: Fc part of the bought fusion protein

[1] = target: human HER2 and HER3 co-expressed on tumour cells (human, UniProt P04626 23-1255; P21860 20-1342); assay: cell-based or functional assay
human ErbB-2 (HER2) [2] = target: T2, human ErbB-2 (HER2) (human, UniProt P04626 23-1255); assay: cell-based or functional assay
human ErbB-3 (HER3) [3] = target: T3, human ErbB-3 (HER3) (human, UniProt P21860 20-1342); assay: FACS on CHO-K1 cells with HER3 constructs; epitope group 3 = 'Reactivity to rat, cyno and human HER3' (Table 5)
T3 construct: whole, on cells; On tumour cell lines

human ErbB-2 (HER2) [4] = target: T2, human ErbB-2 (HER2); assay: antigen titration ELISA: coated monomeric HER2 (ECD-Erbb-2) varied about 0.019-2.5 µg/ml (x axis), IgG fixed at 10 µg/ml as the text says; readout OD450 [lower panel]
human ErbB-3 (HER3) [5] = target: T3, human ErbB-3 (HER3); assay: cell-based or functional assay

B1: PB3448 (MF1849xMF3178) (bispecific antibody, IgG1, V domains shown)
VH 1: QVQLVESGGGVVQPGRSLRLSCAASGFTFSSYGMHWVRQAPGKGLEWVAVISYDGSNKYYADSVKGRFTISRDNSKNTLYLQMNSLRAEDTAVYYCAKGDYGSYSSYAFDYWGQGTLVTVSS
VH 2: not shown
VL: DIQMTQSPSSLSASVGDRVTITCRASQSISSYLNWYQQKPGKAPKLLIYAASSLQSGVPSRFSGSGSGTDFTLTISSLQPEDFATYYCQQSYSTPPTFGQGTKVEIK
notes: IgG1 bispecific with CH3 heterodimerisation mutations
Q: For B1, which Kd (ErbB2-Fc (RND systems)) is on record?
A: The Kd was 5.4 nM.

Q: And the “BxPC3 % Inhibition” value [1]?
A: Its value is -22%.

Q: And the “MCF-7 IC50 (pM), HRG dependent proliferation” value (“MCF-7 IC50 (pM)” for short) [1]?
A: The value was 371 pM.

B2: PG2973 (antibody, IgG1, V domains shown)
VH: QVQLKQSGAELVRPGASVKLSCKASGYIFTGYYINWLRQRPGQGLEWIAKIYPGSGNTYYNEKFRGKATLTAEESSSTAYMQLSSLTSEDSAVYFCARGPHYDYDGPWFVYWGQGTLVTVSS
VL: not shown
Q: Which results are given for B2?
A: HRG dependent MCF-7 proliferation assay, % activity compared to #Ab6, 1 µg/ml IgG (human ErbB-2 (HER2) [2]): 58%; SKBR-3 proliferation assay, % activity compared to trastuzumab, 1 µg/ml IgG (human ErbB-2 (HER2) [2]): 49%

B3: PG3099 (antibody, IgG1, V domains shown)
VH: EVQLQQPGAELVRPGTSVKLSCKASGYTFTSYWMHWVKQRPGQGLEWIGILDPSDSYTTYNQKFKGKATLTVDTSSSIAYMQLSSLTSEDSALYYCARGGDYDEGGAMDYWGQGTSVTVSS
VL: not shown
notes: Monospecific IgG1; also called MF3099; copies: 2 + 2
Q: Does B3 bind (human ErbB-3 (HER3) [3])?
A: Result: binds

B4: PG2930 (antibody, IgG1, V domains shown)
VH: EVQLQQSGAELVKPGASVMMSCKVSGYTFTSYPIAWMKQVHGKSLEWIGNFHPYSDDTKYNENFKGKATLTVEKSSSTVYLELSRLTSDDSAVYYCARSNPLYYFAMDYWGQGTSVTVSS
VL: not shown
notes: Monospecific IgG1; also called MF2930; copies: 2 + 2
Q: B4 was tested. Which “HRG dependent MCF-7 proliferation assay, % activity compared to #Ab6, 1 µg/ml IgG” value (human ErbB-2 (HER2) [2]) did it give?
A: Its value is 7%.

Q: And the “SKBR-3 proliferation assay, % activity compared to trastuzumab, 1 µg/ml IgG” value (human ErbB-2 (HER2) [2])?
A: Its value is 0%.

Q: What about the “EC50 (read off the curve)” value (human ErbB-2 (HER2) [4]) of the same binder?
A: The value was roughly 0.7 µg/mL.

B5: #Ab6 (antibody, V domains shown)
VH: EVQLLESGGGLVQPGGSLRLSCAASGFTFSHYVMAWVRQAPGKGLEWVSSISSSGGWTLYADSVKGRFTISRDNSKNTLYLQMNSLRAEDTAVYYCTRGLKMATIFDYWGQGTLVTVSS
VL: QSALTQPASVSGSPGQSITISCTGTSSDVGSYNVVSWYQQHPGKAPKLIIYEVSQRPSGVSNRFSGSKSGNTASLTISGLQTEDEADYYCCSYAGSSIFVIFGGGTKVTVL
Q: With B5 as the binder, how does the “BxPC3 % Inhibition” value (human ErbB-3 (HER3) [5]) read?
A: The value was -7%.

Q: And the “MCF-7 IC50 (pM)” value (human ErbB-3 (HER3) [5])?
A: The value was 504 pM.

B6: PB3566 (MF3004xMF3178) (bispecific antibody, IgG1, V domains shown)
VH 1: QVQLKQSGAELVRPGASVKLSCKASGYTFTGYYINWVKQRPGQGLEWIARIYPGSGYTYYNEKFKGKATLTAEESSSTAYMHLSSLTSEDSAVYFCARPHYGYDDWYFGVWGTGTTVTVSS
VH 2: not shown
VL: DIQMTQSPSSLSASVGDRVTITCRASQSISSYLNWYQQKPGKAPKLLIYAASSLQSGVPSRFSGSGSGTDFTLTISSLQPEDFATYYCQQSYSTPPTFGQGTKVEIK
Q: For B6, which “BxPC3 % Inhibition” value [1] is on record?
A: Its value is -20%.

Q: And the “MCF-7 IC50 (pM)” value [1]?
A: The value was 7.9 pM.

B7: PG3004 (antibody, IgG1, V domains shown)
VH: QVQLKQSGAELVRPGASVKLSCKASGYTFTGYYINWVKQRPGQGLEWIARIYPGSGYTYYNEKFKGKATLTAEESSSTAYMHLSSLTSEDSAVYFCARPHYGYDDWYFGVWGTGTTVTVSS
VL: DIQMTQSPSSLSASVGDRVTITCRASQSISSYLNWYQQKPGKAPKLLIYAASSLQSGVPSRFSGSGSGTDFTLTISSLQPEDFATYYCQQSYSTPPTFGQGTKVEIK
Q: With B7 as the binder, how does the “HRG dependent MCF-7 proliferation assay, % activity compared to #Ab6, 1 µg/ml IgG” value (human ErbB-2 (HER2) [2]) read?
A: Its value is 56%.

Q: And the “SKBR-3 proliferation assay, % activity compared to trastuzumab, 1 µg/ml IgG” value (human ErbB-2 (HER2) [2])?
A: Its value is 49%.
